Assay results reported in publication PMC11704248, “Alternative splicing in the DBD linker region of p63 modulates binding to DNA and iASPP in vitro” (Cell Death & Disease, 2025).
Several values for one entry are separate records, joined by “and”; a condition that tells them apart may be missing. Equal entries are not always repeated. Blank lines part the entries; values can stand above or below the molecule they belong to.

What was measured:
[1] = target: iASPP C-terminal domain (CTD) (UniProt Q8WUF5); experiment: ITC; peptide titrated to the CTD or SH3 domain; VP-ITC; 25 mM HEPES pH 7.5, 150 mM NaCl, 500 µM TCEP; single-site binding model (AB hetero association)
p63 DBD-TD WT = experiment: ELISA; conditions: ELISA: DPBS, 0.1% Tween-20, 10% Superblock, RT, 1 h; DNA pull-down: 50 mM Tris pH 8.0, 150 mM NaCl, 0.1% Tween-20, 4 C, 3 h
iASPP SH3 (Homo sapiens) = iASPP SH3 (Homo sapiens) (UniProt Q8WUF5); conditions: cited from earlier work
[2] = target: iASPP CTD with N813 and Y814 mutated (UniProt Q8WUF5); experiment: not stated; affinities of peptides for iASPP CTD shown in Supplementary Fig. S5B, C, E; the text does not name the method
[3] = target: T1, iASPP C-terminal domain (CTD) (UniProt Q8WUF5 625-828); experiment: ITC; peptide titrated to the CTD or SH3 domain; VP-ITC; 25 mM HEPES pH 7.5, 150 mM NaCl, 500 µM TCEP; single-site binding model (AB hetero association); conditions: both partners purified
T1 construct: iASPP C-terminal domain (four ankyrin repeats and SH3 domain); The limits 625-828 are printed for the CTD in the crystallisation fusion; no separate limits are printed for the CTD used in ITC and NMR; For NMR the same construct was 15N-labelled (M9 medium); also called iASPP CTD; source: E. coli BL21(DE3) Rosetta, purified (IMAC, TEV cleavage, reverse IMAC, ion exchange, SEC); not shown: His10, …
T1 sequence (looked up): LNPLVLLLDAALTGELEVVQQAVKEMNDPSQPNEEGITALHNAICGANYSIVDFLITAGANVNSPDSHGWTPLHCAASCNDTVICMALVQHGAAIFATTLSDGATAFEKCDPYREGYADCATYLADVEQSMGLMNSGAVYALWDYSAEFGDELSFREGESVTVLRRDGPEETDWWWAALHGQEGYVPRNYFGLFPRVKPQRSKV

iASPP CTD [4] = target: T2, iASPP CTD (UniProt Q8WUF5 625-828); experiment: not stated; affinities of peptides for iASPP CTD shown in Supplementary Fig. S5B, C, E; the text does not name the method; conditions: both partners purified
T2 construct: iASPP, C-terminal domain (CTD: ankyrin repeats and SH3 domain), amino acids 625-828; In the crystal structure this stretch stood fused behind the p63 peptide; also called iASPP CTD (amino acids 625-828); 15N-labelled iASPP CTD; source: E. coli BL21(DE3) Rosetta, purified (IMAC, TEV cleavage, reverse IMAC, ion exchange, SEC); for NMR grown in M9 minimal medium (15N or 15N,13C labelled); not …
T2 sequence (looked up): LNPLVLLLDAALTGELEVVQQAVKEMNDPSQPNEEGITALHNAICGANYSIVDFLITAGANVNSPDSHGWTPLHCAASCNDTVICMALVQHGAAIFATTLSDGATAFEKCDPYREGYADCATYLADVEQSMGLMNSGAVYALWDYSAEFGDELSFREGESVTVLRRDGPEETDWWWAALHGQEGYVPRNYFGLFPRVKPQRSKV

iASPP CTD [5] = target: T3, iASPP CTD (UniProt Q8WUF5 625-828); experiment: ITC
T3 chain: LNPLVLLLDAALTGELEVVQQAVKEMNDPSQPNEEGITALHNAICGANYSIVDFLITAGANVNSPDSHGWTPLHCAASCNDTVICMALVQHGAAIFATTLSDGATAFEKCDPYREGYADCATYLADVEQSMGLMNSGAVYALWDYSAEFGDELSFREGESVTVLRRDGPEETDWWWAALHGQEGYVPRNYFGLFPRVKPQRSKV

ASPP2 CTD = target: T4, ASPP2 CTD (UniProt Q13625 925-1128); experiment: ITC
T4 chain: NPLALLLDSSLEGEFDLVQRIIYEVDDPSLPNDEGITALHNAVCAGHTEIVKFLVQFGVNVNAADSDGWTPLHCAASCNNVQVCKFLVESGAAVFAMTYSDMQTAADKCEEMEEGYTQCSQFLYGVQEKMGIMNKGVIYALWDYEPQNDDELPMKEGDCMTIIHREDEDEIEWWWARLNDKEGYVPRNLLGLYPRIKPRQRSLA

iASPP CTD [6] = target: iASPP CTD (UniProt Q8WUF5); experiment: NMR titration; unlabelled p63 linker peptide (up to 500 µM) with 100 µM 15N-iASPP CTD; 288 K; 25 mM HEPES pH 7.0, 50 mM NaCl, 5 mM DTT; KD from CSPs of selected residues of the SH3 domain, one-site model
iASPP CTD [7] = target: iASPP CTD (UniProt Q8WUF5); experiment: ITC; peptide or DBD titrated to ASPP CTD; VP-ITC; 25 mM HEPES pH 7.5, 150 mM NaCl, 500 µM TCEP; AB hetero association (single-site) model
[8] = target: T5, iASPP CTD N813A Y814A double mutant (UniProt Q8WUF5 625-828, N813A | Y814A); experiment: ITC; peptide titrated to the CTD or SH3 domain; VP-ITC; 25 mM HEPES pH 7.5, 150 mM NaCl, 500 µM TCEP; single-site binding model (AB hetero association); conditions: both partners purified
T5 construct: iASPP C-terminal domain with N813A and Y814A; limits as for the iASPP CTD (amino acids 625-828, printed for the crystallised fusion); also called iASPP NY; N813A Y814A iASPP double mutant; source: E. coli BL21(DE3) Rosetta, purified (IMAC, TEV cleavage, reverse IMAC, ion exchange, SEC); not shown: His10, N-terminal, cleaved
T5 sequence (looked up): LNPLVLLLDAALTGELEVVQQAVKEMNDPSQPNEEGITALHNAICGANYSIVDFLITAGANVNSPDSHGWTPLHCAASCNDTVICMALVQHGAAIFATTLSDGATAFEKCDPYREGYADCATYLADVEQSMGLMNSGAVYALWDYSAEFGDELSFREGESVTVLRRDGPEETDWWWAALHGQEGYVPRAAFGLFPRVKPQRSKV

[9] = target: T1, iASPP C-terminal domain (CTD); experiment: as above; conditions: both partners purified; remark: listed apart in the source

Molecule: p63 linker pT335 peptide
- Kd [1]: 132 µM

Molecule: p21 promoter RE 20 bp
- Kd (p63 DBD-TD WT): 0.115 µM

Molecule: p63 linker acK336 peptide
- Kd [1]: 94.3 µM

Molecule: iASPP
- Kd (iASPP SH3 (Homo sapiens)): 45 µM

Molecule: p63 linker peptide
- fold reduction of the affinity against wild-type iASPP CTD [2]: 2 fold

B3: p73 linker peptide (peptide)
chain: NGAASKRAFKQSPP
modifications: limits not given; taken as the region aligned to p63 331-344 (p63 K336 = p73 K327)
- Kd (iASPP CTD [5]): 33.8 µM
- Kd (ASPP2 CTD): 92.9 µM

B6: p53 linker peptide (peptide)
chain: PPGSTKRALPNNTS
modifications: limits not given; taken as the region aligned to p63 331-344
- Kd (iASPP CTD [5]): 135 µM
- Kd (ASPP2 CTD): 172 µM

B8: p53 linker peptide (peptide)
chain: PPGSTKRALPNNTS
modifications: limits not given; taken as the region aligned to p63 linker peptide 331-344 (p53 R248 = p63 R279, K305 = K336)
- Kd [9]: 55.2 µM

The next lines start with the values.

- Kd [1]: 1.65 µM
Molecule: optimized p63 linker peptide (p63opt, 331-344)

- Kd [3]: 0.186 µM
B1: PP1α peptide (amino acids 313-326) (peptide, UniProt P62136 313-326, looked up)
peptide: NPGGRPITPPRNSA
notes: also called PP1α (313-326)

- Kd (iASPP CTD [4]): 1.7 µM
B2: p63 linker region with the degenerate motif completed to a canonical class II SH3 domain binding motif (peptide)
chain: GDGPKRPFRQN

- Kd (ASPP2 CTD): 288 µM
- Kd (iASPP CTD [6]): 64 to 105 µM
- Kd (iASPP CTD [7]): 90 µM
B4: p63 linker peptide (peptide)
chain: GDGTKRPFRQN

- Kd (ASPP2 CTD): 13.6 µM
B5: p63 DBD (domain or fragment)
chain: SPAIPSNTDYPGPHSFDVSFQQSSTAKSATWTYSTELKKLYCQIAKTCPIQIKVMTPPPQGAVIRAMPVYKKAEHVTEVVKRCPNHELSREFNEGQIAPPSHLIRVEGNSHAQYVEDPITGRQSVLVPYEPPQVGTEFTTVLYNFMCNSSCVGGMNRRPILIIVTLETRDGQVLGRRCFEARICACPGRDRKADEDSIRKQ
modifications: one Zn2+ bound; start from the paper's DBD constructs (123 + 39 = 162), end from the DNA_BIND feature (362 = paper 323)

- Kd [8]: 186 µM
- Kd [9]: 148 µM and 70.1 µM
B7: p63 linker peptide (331-344) (peptide)
peptide: NGDGTKRPFRQNTH
notes: p63 linker region between DBD and OD, residues 331-344; also called p63 peptide (331-344); p63 linker WT
